# Earlier results, collected in PMC3037027.
# Biological target: U2AF65 UHM (Homo sapiens) (UniProt P26368)
# Test: ITC
# Sequence of UniProt P26368 (P26368 372-475, one chain of several): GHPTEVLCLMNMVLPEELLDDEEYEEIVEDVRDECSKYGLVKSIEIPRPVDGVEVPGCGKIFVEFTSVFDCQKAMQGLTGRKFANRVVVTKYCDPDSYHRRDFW
substance,measurement,value
SF1 1-255 (from UniProt Q15637),Kd,0.012 µM
